Assay results reported in IntAct's records for PubMed 22266823.

B1: Fanconi anemia core complex-associated protein 20 (Homo sapiens), Q6NZ36-1 (parent)
chain: MEAARRPRLGLSRRRPRPAGGPSGGRPWFLLGGDERERLWAELLRTVSPELILDHEVPSLPAFPGQEPRCGPEPTEVFTVGPKTFSWTPFPPDLWGPGRSYRLLHGAGGHLESPARSLPQRPAPDPCRAPRVEQQPSVEGAAALRSCPMCQKEFAPRLTQLDVDSHLAQCLAESTEDVTW
partner: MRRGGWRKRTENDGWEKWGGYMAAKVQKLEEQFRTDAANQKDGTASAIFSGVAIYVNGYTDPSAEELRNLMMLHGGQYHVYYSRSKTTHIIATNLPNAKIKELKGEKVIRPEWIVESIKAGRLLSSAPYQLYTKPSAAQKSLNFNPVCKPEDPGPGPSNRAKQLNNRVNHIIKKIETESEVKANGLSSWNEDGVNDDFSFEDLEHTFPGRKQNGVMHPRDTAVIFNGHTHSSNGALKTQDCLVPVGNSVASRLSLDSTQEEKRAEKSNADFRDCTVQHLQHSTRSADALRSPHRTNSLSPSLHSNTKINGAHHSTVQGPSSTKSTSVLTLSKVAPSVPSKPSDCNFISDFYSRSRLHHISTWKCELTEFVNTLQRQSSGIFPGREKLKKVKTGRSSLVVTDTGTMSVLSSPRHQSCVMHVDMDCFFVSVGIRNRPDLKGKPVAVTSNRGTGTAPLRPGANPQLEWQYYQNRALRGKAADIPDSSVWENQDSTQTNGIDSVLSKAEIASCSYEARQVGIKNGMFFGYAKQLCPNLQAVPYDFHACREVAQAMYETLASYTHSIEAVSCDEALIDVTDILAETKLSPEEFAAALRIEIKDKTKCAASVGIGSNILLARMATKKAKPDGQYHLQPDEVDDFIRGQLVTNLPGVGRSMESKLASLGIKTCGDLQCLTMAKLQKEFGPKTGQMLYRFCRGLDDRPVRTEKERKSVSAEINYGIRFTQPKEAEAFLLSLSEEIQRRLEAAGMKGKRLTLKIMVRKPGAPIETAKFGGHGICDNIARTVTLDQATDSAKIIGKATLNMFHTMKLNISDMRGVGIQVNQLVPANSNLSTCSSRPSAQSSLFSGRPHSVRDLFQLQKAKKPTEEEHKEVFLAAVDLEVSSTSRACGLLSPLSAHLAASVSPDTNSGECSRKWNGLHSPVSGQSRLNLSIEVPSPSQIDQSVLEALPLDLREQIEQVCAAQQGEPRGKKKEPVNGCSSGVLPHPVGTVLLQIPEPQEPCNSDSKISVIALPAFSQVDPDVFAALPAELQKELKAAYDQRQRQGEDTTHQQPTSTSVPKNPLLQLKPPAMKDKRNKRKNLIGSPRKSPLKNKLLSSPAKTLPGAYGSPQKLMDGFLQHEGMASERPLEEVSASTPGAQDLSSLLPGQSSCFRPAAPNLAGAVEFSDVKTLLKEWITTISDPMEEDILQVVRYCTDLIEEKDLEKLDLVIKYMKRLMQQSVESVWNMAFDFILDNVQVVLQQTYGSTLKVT

Variants of: B1
Settings: with rev1_mouse Rev1, Q920Q2

| Variant | effect of a mutation on the interaction |
| --- | --- |
| C147A;C150A | disrupting interaction strength |
